From patent US20090318535A1 (NEW YORK UNIVERSITY, published 2009)

How the values were obtained:
[1] = target: T1, HA-BimEL (S94/98A) mutant (human, UniProt O43521 1-198); assay: co-immunoprecipitation with HA resin from transfected HEK293 cells (FIG. 2A)
T1 construct: HA-tagged, expressed in HEK293
Experimental: Twenty-four hours after transfection, cells were treated for 3 hours with PMA and MG 132. Whole cell extracts (WCE) were subjected to immunoprecipitation using HA resin (α-HA) followed by immunoblotting with indicated antibodies.

[2] = target: T2, human BimEL (Bcl-2-Interacting Mediator of cell death, Extra Long isoform) (human, UniProt O43521 1-198, phosphorylated in cells after PMA treatment (Ser69, Ser93, Ser94, Ser98 as the filing reports)); assay: co-immunoprecipitation with FLAG resin from HEK293 cells expressing FLAG-tagged F-box proteins, immunoblot for BimEL
T2 construct: 198 aa protein, GenBank AAC39593; also called HA-BimEL WT; wild-type BimEL
Experimental: For these binding studies, HEK293 cells were transfected with the indicated FLAG-tagged Fbw family F-box protein constructs (in FIG. 1). Twenty-four hours after transfection cells were treated for 3 hours with PMA (20 nM) and the proteasome inhibitor MG132 (10 μM) then harvested and lysed. Whole cell extracts (WCE) were subjected to immunoprecipitation using FLAG resin (α-FLAG), followed by immunoblotting with indicated antibodies (EV: empty vector).

binding result [1]: no binding
B1: human β-TrCP1 (beta-transducin repeat containing protein 1) (other)
chain: MDPAEAVLQEKALKFMCSMPRSLWLGCSSLADSMPSLRCLYNPGTGALTAFQNSSEREDCNNGEPPRKIIPEKNSLRQTYNSCARLCLNQETVCLASTAMKTENCVAKTKLANGTSSMIVPKQRKLSASYEKEKELCVKYFEQWSESDQVEFVEHLISQMCHYQHGHINSYLKPMLQRDFITALPARGLDHIAENILSYLDAKSLCAAELVCKEWYRVTSDGMLWKKLIERMVRTDSLWRGLAERRGWGQYLFKNKPPDGNAPPNSFYRALYPKIIQDIETIESNWRCGRHSLQRIHCRSETSKGVYCLQYDDQKIVSGLRDNTIKIWDKNTLECKRILTGHTGSVLCLQYDERVIITGSSDSTVRVWDVNTGEMLNTLIHHCEAVLHLRFNNGMMVTCSKDRSIAVWDMASPTDITLRRVLVGHRAAVNVVDFDDKYIVSASGDRTIKVWNTSTCEFVRTLNGHKRGIACLQYRDRLVVSGSSDNTIRLWDIECGACLRVLEGHEELVRCIRFDNKRIVSGAYDGKIKVWDLVAALDPRAPAGTLCLRTLVEHSGRVFRLQFDEFQIVSSSHDDTILIWDFLNDPAAQAEPPRSPSRTYTYISR
notes: also called Fbp1
binding result [2]: binds
